T1: pig CD47 (pig, UniProt Q9GKE8 19-303)
T1 construct: whole, on cells; also called CD47 on pig RBCs
T1 sequence (looked up): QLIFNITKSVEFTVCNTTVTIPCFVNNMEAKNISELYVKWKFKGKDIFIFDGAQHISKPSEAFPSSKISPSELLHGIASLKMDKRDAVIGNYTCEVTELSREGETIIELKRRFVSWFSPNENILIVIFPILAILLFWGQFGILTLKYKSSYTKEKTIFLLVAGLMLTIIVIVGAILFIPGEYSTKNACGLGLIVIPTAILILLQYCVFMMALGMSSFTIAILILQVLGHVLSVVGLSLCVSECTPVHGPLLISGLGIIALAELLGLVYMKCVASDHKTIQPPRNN

T2: rat CD47 (rat, UniProt P97829 19-303)
T2 construct: whole, on cells; also called CD47 on rat RBCs
T2 sequence (looked up): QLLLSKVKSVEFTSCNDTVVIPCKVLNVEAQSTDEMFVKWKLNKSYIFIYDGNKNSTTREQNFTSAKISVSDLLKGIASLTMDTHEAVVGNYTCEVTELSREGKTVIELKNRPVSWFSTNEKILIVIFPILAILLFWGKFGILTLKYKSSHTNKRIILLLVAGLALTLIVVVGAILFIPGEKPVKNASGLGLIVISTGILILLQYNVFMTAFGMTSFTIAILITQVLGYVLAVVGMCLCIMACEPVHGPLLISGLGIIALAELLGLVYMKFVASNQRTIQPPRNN

T3: mouse CD47 (mouse, UniProt Q61735 19-303)
T3 construct: whole, on cells; also called CD47 on murine RBCs (mRBCs)
T3 sequence (looked up): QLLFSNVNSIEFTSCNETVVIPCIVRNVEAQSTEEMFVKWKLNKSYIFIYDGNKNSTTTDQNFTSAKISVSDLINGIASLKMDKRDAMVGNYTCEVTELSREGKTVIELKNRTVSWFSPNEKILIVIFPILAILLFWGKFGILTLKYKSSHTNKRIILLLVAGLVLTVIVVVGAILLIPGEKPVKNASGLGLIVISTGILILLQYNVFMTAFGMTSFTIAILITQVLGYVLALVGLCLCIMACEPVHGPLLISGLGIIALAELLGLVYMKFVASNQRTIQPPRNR

B1: Vx10_mh_IgG1N297Q (antibody)
heavy: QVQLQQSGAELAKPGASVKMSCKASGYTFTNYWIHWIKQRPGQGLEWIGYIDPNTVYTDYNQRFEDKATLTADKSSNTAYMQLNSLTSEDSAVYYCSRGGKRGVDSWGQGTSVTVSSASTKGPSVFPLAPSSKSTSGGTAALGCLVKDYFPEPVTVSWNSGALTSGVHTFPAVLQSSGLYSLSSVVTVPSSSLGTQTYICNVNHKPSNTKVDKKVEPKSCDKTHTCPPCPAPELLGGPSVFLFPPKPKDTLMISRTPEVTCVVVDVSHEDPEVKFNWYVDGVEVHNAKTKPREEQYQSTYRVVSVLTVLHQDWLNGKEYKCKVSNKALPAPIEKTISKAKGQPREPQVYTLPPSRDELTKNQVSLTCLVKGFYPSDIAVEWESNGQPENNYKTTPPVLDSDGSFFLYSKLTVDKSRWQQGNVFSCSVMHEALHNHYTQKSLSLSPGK
light: DVVMTQTPLSLPVSLGDQASISCRSSQSLENSNGDTYLNWYLQKPGQSPQLLIYRVSNRFSGVLDRFSGSGSGTDFTLQISRVEAEDLGVYFCLQVSHVPWTFGGGTNLEIKRTVAAPSVFIFPPSDEQLKSGTASVVCLLNNFYPREAKVQWKVDNALQSGNSQESVTEQDSKDSTYSLSSTLTLSKADYEKHKVYACEVTHQGLSSPVTKSFNRGEC
notes: Mouse-human chimeric full length IgG, human IgG1-N297Q and human kappa, made in CHO cells; also called chimeric Vx10 IgG1 N297Q
B2: Vx10_mh_IgG4PE (antibody)
heavy: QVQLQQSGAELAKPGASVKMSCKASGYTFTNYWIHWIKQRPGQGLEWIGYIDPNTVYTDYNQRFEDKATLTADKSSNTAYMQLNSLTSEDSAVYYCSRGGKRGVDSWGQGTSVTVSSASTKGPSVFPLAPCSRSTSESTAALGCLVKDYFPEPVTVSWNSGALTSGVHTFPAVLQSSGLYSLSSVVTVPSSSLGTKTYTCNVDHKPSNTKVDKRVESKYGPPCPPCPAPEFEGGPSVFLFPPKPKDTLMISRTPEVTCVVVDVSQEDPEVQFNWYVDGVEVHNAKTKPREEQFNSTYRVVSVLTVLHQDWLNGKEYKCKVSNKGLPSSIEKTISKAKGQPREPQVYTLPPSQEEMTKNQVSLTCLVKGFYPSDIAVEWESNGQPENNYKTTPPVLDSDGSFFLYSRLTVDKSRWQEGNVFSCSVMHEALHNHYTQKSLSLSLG
light: DVVMTQTPLSLPVSLGDQASISCRSSQSLENSNGDTYLNWYLQKPGQSPQLLIYRVSNRFSGVLDRFSGSGSGTDFTLQISRVEAEDLGVYFCLQVSHVPWTFGGGTNLEIKRTVAAPSVFIFPPSDEQLKSGTASVVCLLNNFYPREAKVQWKVDNALQSGNSQESVTEQDSKDSTYSLSSTLTLSKADYEKHKVYACEVTHQGLSSPVTKSFNRGEC
notes: Mouse-human chimeric full length IgG, human IgG4 PE and human kappa, made in CHO cells; also called chimeric Vx10 IgG4PE
B3: Vx12_mh_IgG1N297Q (antibody)
heavy: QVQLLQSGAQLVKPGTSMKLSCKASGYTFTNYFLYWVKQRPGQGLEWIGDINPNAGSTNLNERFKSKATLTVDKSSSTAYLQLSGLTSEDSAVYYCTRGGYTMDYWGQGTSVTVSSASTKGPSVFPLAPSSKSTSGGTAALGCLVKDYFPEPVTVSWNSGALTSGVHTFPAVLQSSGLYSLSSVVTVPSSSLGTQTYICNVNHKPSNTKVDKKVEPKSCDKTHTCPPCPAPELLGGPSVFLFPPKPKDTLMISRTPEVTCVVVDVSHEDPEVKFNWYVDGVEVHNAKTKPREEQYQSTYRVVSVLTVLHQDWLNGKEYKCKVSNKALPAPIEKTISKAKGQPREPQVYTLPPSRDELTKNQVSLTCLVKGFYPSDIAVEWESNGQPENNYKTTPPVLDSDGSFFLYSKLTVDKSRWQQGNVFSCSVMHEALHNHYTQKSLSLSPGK
light: DVVMTQIPLSLPVSLGDQASISCRSSQSLVHSNGNTYLHWYLQKPGQSPKLLIYKVSNRFSGVPDRFSGSGSGTDFTLKISRVEAEDLGVYFCSQSTHVPRTFGGGTKLEIKRTVAAPSVFIFPPSDEQLKSGTASVVCLLNNFYPREAKVQWKVDNALQSGNSQESVTEQDSKDSTYSLSSTLTLSKADYEKHKVYACEVTHQGLSSPVTKSFNRGEC
notes: Mouse-human chimeric full length IgG, human IgG1-N297Q and human kappa, made in CHO cells; also called chimeric Vx12 IgG1 N297Q
B4: Vx12_mh_IgG4PE (antibody)
heavy: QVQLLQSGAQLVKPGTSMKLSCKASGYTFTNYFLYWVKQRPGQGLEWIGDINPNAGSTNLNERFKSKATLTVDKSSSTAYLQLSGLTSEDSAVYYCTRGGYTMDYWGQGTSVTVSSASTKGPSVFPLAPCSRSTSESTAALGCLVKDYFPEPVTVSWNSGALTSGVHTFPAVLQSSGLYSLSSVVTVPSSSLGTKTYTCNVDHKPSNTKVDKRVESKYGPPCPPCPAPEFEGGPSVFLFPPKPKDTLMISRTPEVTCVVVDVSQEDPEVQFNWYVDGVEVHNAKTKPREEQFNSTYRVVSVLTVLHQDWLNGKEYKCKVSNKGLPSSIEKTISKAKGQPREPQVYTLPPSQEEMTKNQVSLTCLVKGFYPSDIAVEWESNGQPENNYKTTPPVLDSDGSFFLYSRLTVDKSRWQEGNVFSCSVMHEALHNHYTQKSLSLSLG
light: DVVMTQIPLSLPVSLGDQASISCRSSQSLVHSNGNTYLHWYLQKPGQSPKLLIYKVSNRFSGVPDRFSGSGSGTDFTLKISRVEAEDLGVYFCSQSTHVPRTFGGGTKLEIKRTVAAPSVFIFPPSDEQLKSGTASVVCLLNNFYPREAKVQWKVDNALQSGNSQESVTEQDSKDSTYSLSSTLTLSKADYEKHKVYACEVTHQGLSSPVTKSFNRGEC
notes: Mouse-human chimeric full length IgG, human IgG4 PE and human kappa, made in CHO cells; also called chimeric Vx12 IgG4PE
B5: Vx10 (antibody, V domains shown)
VH: QVQLQQSGAELAKPGASVKMSCKASGYTFTNYWIHWIKQRPGQGLEWIGYIDPNTVYTDYNQRFEDKATLTADKSSNTAYMQLNSLTSEDSAVYYCSRGGKRGVDSWGQGTSVTVSS
VL: DVVMTQTPLSLPVSLGDQASISCRSSQSLENSNGDTYLNWYLQKPGQSPQLLIYRVSNRFSGVLDRFSGSGSGTDFTLQISRVEAEDLGVYFCLQVSHVPWTFGGGTNLEIK
notes: Murine mAb; also called murine anti-CD47 mAb Vx10
B6: Vx11 (antibody, V domains shown)
VH: EVQLQQSGAQLVKPGTSMKLSCKASGYTFTNYFLYWVKQRPGQGLEWIGDINPNAGSTNLNERFKSKATLTVDKSSSTAYLQLSGLTSEDSAVYYCTRGGYTMDYWGQGTSVTVSS
VL: DVVMTQTPLSLPVSLGDQASISCRSSQSLENSNGDTYLNWYLQKPGQSPQLLIYRVSNRFSGVLDRFSGSGSGTDFTLQISRVEAEDLGVYFCLQVSHVPWTFGGGTNLEIK
notes: Murine mAb; also called murine anti-CD47 mAb Vx11
B7: humVx10_01_IgG4PE (antibody, V domains shown)
VH: QVQLVQSGAEVKKPGASVQVSCKASGYTFTNYWIHWLRQAPGQGLEWMGYIDPNTVYTDYNQRFEDRVTMTSDTSISTAYMELSSLRSDDTAVYYCARGGKRGVDSWGQATLVTVSS
VL: DIVMTQSPLSLPVTPGEPASISCRSSQSLENSNGDTYLNWYLQKPGQSPRLLIYRVSNRFSGVPDRFSGSGSGTDFTLKISRVEADDVGIYYCLQVSHVPWTFGQGTKLEIKR
notes: Humanized full length IgG4 PE, human kappa
B8: Vx12 (antibody, V domains shown)
VH: QVQLLQSGAQLVKPGTSMKLSCKASGYTFTNYFLYWVKQRPGQGLEWIGDINPNAGSTNLNERFKSKATLTVDKSSSTAYLQLSGLTSEDSAVYYCTRGGYTMDYWGQGTSVTVSS
VL: DVVMTQIPLSLPVSLGDQASISCRSSQSLVHSNGNTYLHWYLQKPGQSPKLLIYKVSNRFSGVPDRFSGSGSGTDFTLKISRVEAEDLGVYFCSQSTHVPRTFGGGTKLEIK
notes: Murine mAb; also called murine anti-CD47 mAb Vx12
B9: Vx13 (antibody, V domains shown)
VH: EVQLQQSGPEVVKPGASVRISCKASDYTFTNYYIHWVRQRPGQGLEWIGWIYPGNNNNKYNEKFKGKATLTEDTSSSTAYMQLSSLTSEDSAVYFCARGGYTMDYWGQG
VL: DVLMTQTPLSLPVSLGDQASISCRSSQSLVHSNGNTYLHWYLQKPGQSPNLLIYKVSNRFSGVPDRFSGSGSGTDFTLKINRVETEDLGIYFCSQSTHVLTFGAG
notes: Murine mAb; also called murine anti-CD47 mAb Vx13

Key:
human CD47 [1] = target: T4, human CD47 (human, UniProt Q08722 19-292); test: flow cytometry on human RBCs, apparent affinity
T4 construct: On human RBCs, on OV10 cells transfected with human CD47 (OV10-hCD47) and on Jurkat T cells; also called hCD47; integrin-associated protein (IAP)
Protocol: (§1) Binding activities of humanized mAbs to human CD47 on human RBCs were determined using flow cytometry. RBCs were incubated for 60 min on at 37° C. with various concentrations of the chimeric or humanized antibodies in a solution of phosphate buffered saline, pH 7.2, 2.5 mM EDT A (PBS+E). Cells were then washed with cold PBS+E and incubated for an additional hour on ice with a FITC labeled donkey-anti-human antibody (Jackson Immuno Research Labs, West Grove, Pa.) in PBS+E. Cells were washed with PBS+E, antibody binding analyzed using a C6 Accuri Flow Cytometer (Becton Dickinson) and apparent binding affinities determined by non-linear fit (Prism GraphPad software) of the median fluorescence intensities at the various antibody concentrations.

human CD47 [2] = target: T4, human CD47; test: cell-based ELISA on OV10-hCD47 tumor cells, apparent affinity
Protocol: Binding activities of humanized mAbs were determined using a cell-based ELISA assay with human OVIO-hCD47 cells expressing cell surface human CD47. OVIO hCD47 cells were grown in IMDM medium containing 10% heat inactivated fetal bovine serum (BioWest; S01520). One day before assay, 3×10⁴ cells were plated in 96 well cell bind plates (Corning #3300, VWR #66025-626) and were 95-100% confluent at the time of assay. Cells were washed, and various concentrations of purified antibodies added in IMDM 37° C. for 1 hr in 95%02 I 5% CO₂. Cells were then washed with media and incubated for an additional hour at 37° C. with HRP labeled secondary anti-human antibody (Promega) diluted 1/2500 in media. Cells were washed three times with PBS, and the peroxidase substrate 3,3′, 5,5′-tetramethylbenzidine is added (Sigma; Catalog #T4444). Reactions were terminated by the addition of HCl to 0.7N, and absorbance at 450 nm is determined using a Tecan model Infinite M200 plate reader. The apparent binding affinities of these clones to human OVIO-hCD47 cells was determined by non-linear fit (Prism GraphPad software).

dog CD47 = target: T5, dog CD47 (dog); test: flow cytometry on dog RBCs, apparent affinity by non-linear fit of median fluorescence
T5 construct: whole, on cells; also called CD47 on dog RBCs

pig CD47 = target: T1, pig CD47; test: flow cytometry on pig RBCs, apparent affinity by non-linear fit of median fluorescence
rat CD47 = target: T2, rat CD47; test: flow cytometry on rat RBCs, apparent affinity by non-linear fit of median fluorescence
human CD47 [3] = target: T4, human CD47; test: flow cytometry on human RBCs, apparent affinity by non-linear fit of median fluorescence
Protocol: (§2) Binding activities of murine mAbs to mouse CD47 on murine RBCs (mRBCs) and human CD47 on human RBCs (hRBCs) were determined using flow cytometry. RBCs were incubated for 60 min on at 37° C. with various concentrations of the chimeric or humanized antibodies in a solution of phosphate buffered saline, pH 7.2, 2.5 mM EDT A (PBS+E). Cells were then washed with cold PBS+E and incubated for an additional hour on ice with a FITC labeled goat-anti-mouse antibody (Jackson Immuno Research Labs, West Grove, Pa.) in PBS +E. Cells were washed with PBS+E, antibody binding analyzed using a C6 Accuri How Cytometer (Becton Dickinson) and apparent binding affinities determined by non-linear fit (Prism GraphPad software) of the median fluorescence intensities at the various antibody concentrations.

mouse CD47 = target: T3, mouse CD47; test: flow cytometry on mouse RBCs, apparent affinity by non-linear fit of median fluorescence
Protocol: as §2

human CD47 [4] = target: T4, human CD47; test: flow cytometry on human RBCs and cell-based ELISA on OV10-hCD47 cells
Protocol: as §1
Binding activities of humanized mAbs were determined using a cell-based ELISA assay with human OVIO-hCD47 cells expressing cell surface human CD47. OVIO hCD47 cells were grown in IMDM medium containing 10% heat inactivated fetal bovine serum (BioWest; S01520). […] Reactions were terminated by the addition of HCl to 0.7N, and absorbance at 450 nm is determined using a Tecan model Infinite M200 plate reader. The apparent binding affinities of these clones to human OVIO-hCD47 cells was determined by non-linear fit (Prism GraphPad software).

T4 sequence (Q08722 other isoform, or with tags, fused parts or gaps limits assumed): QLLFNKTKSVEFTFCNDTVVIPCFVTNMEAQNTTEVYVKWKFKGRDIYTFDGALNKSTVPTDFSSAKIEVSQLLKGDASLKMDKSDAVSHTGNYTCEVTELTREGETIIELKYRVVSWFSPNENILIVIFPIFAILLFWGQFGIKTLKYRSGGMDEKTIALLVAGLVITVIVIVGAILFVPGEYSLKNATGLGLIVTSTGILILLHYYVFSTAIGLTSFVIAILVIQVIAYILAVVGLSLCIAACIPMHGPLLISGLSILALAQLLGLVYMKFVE

Binder	Kd (human CD47 [1]) [nM]	Kd (human CD47 [2]) [nM]	Kd (dog CD47) [nM]	Kd (pig CD47) [nM]	Kd (human CD47 [3]) [nM]	Kd (mouse CD47) [nM]	further results
B1	0.04	0.087					
B2	0.048	0.091					
B3	0.09	0.069					
B4	0.12	0.07					
B5			0.714	0.123	0.459	0.031	Kd (rat CD47): 0.179 nM
B6			< 0.013		0.091	0.246	Kd (rat CD47): 0.231 nM
B7							binding result (human CD47 [4]): binds
B8			0.101	0.06	0.384	< 0.013	
B9			1.62	0.102	0.874		

— patent US20210324075A1 (ARCH ONCOLOGY, published 2021)
